We go through eight molecules from patent US10889844B2, “Methods of degrading or hydrolyzing a polysaccharide” (Novozymes A/S, priority 2010, dated 2021).

In assay [1] the test system is Cellic™ CTec2. Briefly: Effect of ascorbic acid on glucose release from cellulose by Cellic CTec2 (FIG. 35). Type of assay: biochemical. The note with it: 0.5 mM ascorbic acid, 24 hours.
Assay [2] deals with CBP21 (Serratia marcescens). Type of assay: biochemical. The conditions noted are these: CBP21 alone on beta-chitin with reductant; 10 mM sodium dithionite anaerobic or 2.0 mM potassium cyanide.
Assay [3] has as its target T1, CBP21 (Serratia marcescens, UniProt P9WEM3). Type of assay: biochemical.
The target in assay [4] is T1, CBP21. Briefly: Reactions under metal chelating conditions: re-activation of metal-free CBP21. Type of assay: biochemical. On the procedure: Solid lines indicate reactions with metal-free CBP21; dashed lines indicate reactions without CBP21. Half way through the reaction (indicated by the arrow) MgCl2 (final concentration 25 mM), ZnCl2 (25 mM) or buffer was added to one of two (parallel) reaction mixtures. Squares, MgCl2 added; circles, ZnCl2 added; triangles, buffer added.
Divalent cations were removed by chelation through dialysis of a 10 mg/mL CBP21 solution in a buffer containing 20 mM Tris-HCl and 5 mM EDTA. The protein solution was present in a Slide-A-Lyzer cassette (Pierce) with 10 kDa MW cut-off dialysis membrane. […] For the re-activation experiment, the divalent cations were added to the appropriate reaction solutions immediately after the third sampling (90 minutes).

The nature of assay [5]: Filter paper cellulose degradation by […] with E7 (FIG. 28). It is filed as biochemical. The conditions noted are these: 2 mM reduced glutathione. Here is the method: 1 μM of the N-terminal CBM33 domain of CelS2 was incubated with 10 mg/ml AVICEL® in the presence of 0.8 mM of one of the reductants, or in the absence of any reductant. Reactions were run in 50 mM succinate buffer pH 5.5, 1 mM MgCl2, at 50° C. and 900 rpm (vertical agitation) for 20 hours. […] (glucose and cellobiose reported as [Glc]) released after incubation of 0.08 μl/ml […]™ (CC) in the presence or absence of 1 μM E7 and 2 mM reduced glutathione (RG) as external electron donor with 2 mg/ml filter paper cellulose. Reactions were incubated in 20 mM sodium acetate buffer pH 5.5, 1 mM MgCl2, at 50° C. and 900 rpm (horizontal agitation) for up to 50 hours.

Assay [6] is described as follows: Filter paper degradation by HjCel7A with CelS2 over time (FIG. 26). Type of assay: biochemical. The note with it: no CelS2 present. On the procedure: By far the major products of these reactions are cellooligosaccharides released by the cellulases (whose activity is boosted by CelS2). In the case of HjCel7A, the main product is cellobiose and formation of this product is shown. RG, indicates the presence of a reductant, in this case reduced glutathione. […] The reactions were run at 50° C.

Assay [7] is described as follows: Time course of filter paper cellulose degradation by […] with CelS2 (FIG. 25). Type of assay: biochemical. On the procedure: In reactions where no CelS2 was present, 40 μg/ml purified BSA was added in order to maintain an identical protein load. […] Data are mean+/−SD (N=3); error bars indicate SD.
A short description of assay [8]: Cleavage of AVICEL by GH61 proteins in the presence of ascorbic acid (HPAEC, FIG. 34). The note with it: 140 μg/ml GH61 protein, 10 mg/ml AVICEL, 2.4 mM ascorbic acid, pH 6.6, 24 hours. It is filed as biochemical. The source says:
The two proteins were cloned and produced as described in Harris et al., 2010, supra. […] While the product pattern is similar to that obtained with CBM33s, it is not identical. The patterns typically obtained with CBM33s acting on cellulose in the presence of reductants (FIGS. 19, 22, 27, 30, and 31) show different peridiodicities (i.e., relative abundances of the various products, both oxidized and native oligosaccharides). This may indicate that TtGH61E acts on the substrate in a slightly different way, e.g., by attacking another face of the crystal. Clearly, however, the overall outcome of the reaction of TtGH61E in the presence of the reductant is similar to the outcome of reactions of CBM33s on cellulose in the presence of reductant.

The conditions of assay [9]: 0.1 mg/mL beta-chitin, 0.5 μM ChiC, 1.0 mM ascorbic acid, pH 8.0.
Description: CBP21-like and GH61 proteins contain two highly conserved histidines (H28 and H114 in CBP21), one of which is the N-terminal histidine of the secreted mature protein.
Isocratic HPLC was run on a Dionex Ultimate 3000 HPLC system set up with a 4.6×250 mm Amide-80 column (Tosoh Bioscience, Montgomeryville, Pa., USA) with an Amide-80 guard column. The mobile phase consisted of 70% acetonitrile: 30% MilliQ H2O and the flow rate was 0.7 ml/min. Eluted oligosaccharides were monitored by recording absorption at 190 nm. Chromatograms were recorded, integrated and analysed using the Chromeleon 6.8 chromatography software (Dionex). […] A standard solution containing 0.10 mM (GlcNAc)2 was analyzed at regular intervals during the sample series, and the resulting average values (displaying standard deviations of less than 3%) were used for calibration.
For the sake of experimental simplicity and throughput, the degradation of chitin in reactions with ChiC and CBP21 was quantitatively assessed by measuring concentration of the dominant product, (GlcNAc)2, only.
The reaction was incubated at 37° C. and sampled at regular time intervals. Chitin degradation was measured by determining the concentration of (GlcNAc)2 by HPLC.
The nature of assay [10]: Chitin solubilization by CBP21: soluble oxidized products (MALDI-TOF MS, UHPLC). Type of assay: biochemical. The note with it: 2.0 mg/mL beta-chitin, 1.0 mM ascorbic acid, 20 mM Tris pH 8.0, 37° C.
Description: Two microliter of a 9 mg/mL mixture of 2,5-dihydroxybenzoic acid (DHB) in 30% acetonitrile was applied to a MTP 384 target plate ground steel TF (Bruker Daltonics). One microliter sample was then mixed into the DHB droplet and dried under a stream of air. The samples were analyzed with an Ultraflex MALDI-TOF/TOF instrument (Bruker Daltonics GmbH, Bremen, Germany) with a Nitrogen 337 nm laser beam. The instrument was operated in positive acquisition mode and controlled by the FlexControl 3.3 software package. All spectra were obtained using the reflectron mode with an acceleration voltage of 25 kV, a reflector voltage of 26, and pulsed ion extraction of 40 ns in the positive ion mode. The acquisition range used was from m/z 0 to 7000. […] Post-source decay (PSD) spectra using the Bruker Daltonics LIFT system were recorded at 8 kV precursor ion acceleration voltage and fragment acceleration (LIFT voltage 19 kV). […]
UHPLC was run on an Agilent 1290 Infinity UHPLC system equipped with diode array detector, set up with a Waters Acquity UPLC BEH amide column (2.1×150 mm with a 2.1×30 mm pre column both having a column material particle size of 1.7 μm) using 5 μL sample injections. […] Eluted oligosaccharides were monitored by recording absorption at 205 nm. Chromatograms were recorded, integrated and analysed using the ChemStation rev. […]
Assay [11] can be described thus: CBP21 reaction speed and degree of substrate oxidation (UHPLC of oxidized chitooligosaccharides). It is filed as biochemical. On the procedure: FIGS. 16A and 16B show the speed and extent of oxidative cleavage by CBP21 activity. […] After five hours, approximately 4.9% of the total sugars (theoretical number based on chitin concentration) are oxidized*. […] The degree of oxidation was determined by rapid conversion of the treated chitin with a large dose of a chitinase cocktail followed by UHPLC detection of oxidized dimers (filled diamonds) and trimers (filled triangles), as described in the Materials and Methods section. The linear part of the reaction represents an oxidation rate of approximately 1 per minute**. Maximum levels are reached after 2-3 hours and represent a degree of oxidation of 7.6% of the total sugars (theoretical number based on chitin concentration)***. Data in both panels are mean+/−SD (N=3); error bars (not visible for every point) indicate SD.
*The end concentrations of oxidized trimer and tetramer are 53 and 55 μM, respectively, giving rise to a total of 108 μM GlcNAcA. The molar concentration of GlcNAc in the solution is 2217 μM. Thus the degree of oxidation is 108/2217; in other words 4.9% of the sugars are GlcNAcA. **The rates calculated for oxidized dimer and oxidized trimer are 0.68 and 0.60 μM/min. […] The molar concentration of GlcNAc in the solution is 2217 μM. Thus the degree of oxidation is 168/2217; in other words 7.6% of the sugars are GlcNAcA.
Fractions were dried under vaccum (SpeedyVac), and resuspended in 50 μL MilliQ water. Purity was verified by MALDI-TOF MS. Isolated GlcNAc3GlcNAcA or GlcNAc4GlcNAcA were each incubated for 2 hours at 37° C. with 7.0 μM of a pure recombinant family 19 chitinase (ChiG from Streptomyces coelicolor (Hoell et al., 2006, FEBS J. 273: 4889)) resulting in production of equimolar amounts of GlcNAc2 and GlcNAcGlcNAcA or GlcNAc2GlcNAcA, respectively. The amount of GlcNAc2 resulting from the hydrolysis was estimated using a predetermined standard curve. Response factors for the GlcNAcA containing oligosaccharides were obtained by determining GlcNAcGlcNAcA/GlcNAc2 and GlcNAc2GlcNAcA/GlcNAc2 peak area ratios and found to be 0.71 and 0.81, respectively. A response factor for GlcNAc3GlcNAcA was approximated to be 0.88 by extrapolation of the two experimentally determined response factors. Using the response factors determined, GlcNAcGlcNAcA and GlcNAc2GlcNAcA peaks could be quantified using GlcNAc2 for calibration. […] Additionally, the reactions contained 0.45 mg/mL beta-chitin, 1.0 μM CBP21 and 0.5 ChiC μM in 20 mM Tris-HCl pH 8.0.
The reactions were incubated at 37° C. in an Eppendorf Thermo mixer with shaking at 1000 rpm, and sampled at 30, 60, 120 and 300 minutes. All samples were mixed 1:1 with 100% acetonitrile in order to stop the reaction and soluble products were analyzed by UHPLC. Separation of the oxidized oligosaccharides and GlcNAc2 was achieved using a column temperature of 30° C. and a flow of 0.4 mL/min, with a gradient starting at 80% ACN (A):20% 15 mM Tris-HCl pH 8.0 (B) for 4.5 minutes, followed by an 11 minute gradient to 63% A: 37% B which was held for 3.5 minutes. Column reconditioning was achieved by a two minute gradient to initial conditions and subsequent running at initial conditions for 5 minutes. Eluted oligosaccharides were monitored by recording absorption at 205 nm. Chromatograms were recorded, integrated and analysed using the ChemStation rev. B.04.02 chromatography software (Agilent Technologies).
In order to approximate the rate of the CBP21 oxidohydrolytic activity, reactions containing 0.45 mg/mL beta-chitin, 1.0 μM CBP21 and 1.0 mM reduced glutathione in 20 mM Tris-HCl pH 8.0 were incubated at 37° C. and sampled at 10, 15, 30,45, 60 and 300 minutes. […]

[12] abbreviates: 1.0 μM CBP21 alone, 0.45 mg/mL beta-chitin.

Consider `O=C1O[C@H]([C@@H](O)CO)C(O)=C1O` [ascorbic acid], for which the “increase of the release of glucose” value in assay [1] (AVICEL®) and in [1] (Filter Paper) was “about 30%” each time.
For `O=S([O-])S(=O)[O-].[Na+].[Na+]` [sodium dithionite, Sodium dithionite], the “effect on CBP21 generated oxidized products” value in [2] was “no detectable amounts of CBP21 generated products”. For the same molecule, in assay [3], the “effect on the potentiating effect of CBP21 on ChiC” value is listed as “abolished”.
With `[Cl-].[Cl-].[Zn+2]` [ZnCl2], the “re-activation of metal-free CBP21” value in assay [4] is on record as “Re-activation of metal-free CBP21 was achieved”.
For the molecule `N[C@@H](CCC(=O)N[C@@H](CS)C(=O)NCC(=O)O)C(=O)O` [reduced glutathione, reference compound], the “effect of reductant in reactions with only CC” value in [5] and in assay [7] (0.5 mM reduced glutathione) was “no effect in reactions with only CC” throughout. Besides, the “effect of reductant on Cel7A alone” value in assay [6] was “essentially identical”.
For `[Cl-].[Cl-].[Mg+2]` [MgCl2], the “re-activation of metal-free CBP21” value in assay [4] is listed as “Re-activation of metal-free CBP21 was achieved”.

B1: TtGH61E: GH61 protein from Thielavia terrestris (SEQ ID NO: 1) (protein)
chain: MLANGAIVFLAAALGVSGHYTWPRVNDGADWQQVRKADNWQDNGYVGDVTSPQIRCFQATPSPAPSVLNTTAGSTVTYWANPDVYHPGPVQFYMARVPDGEDINSWNGDGAVWFKVYEDHPTFGAQLTWPSTGKSSFAVPIPPCIKSGYYLLRAEQIGLHVAQSVGGAQFYISCAQLSVTGGGSTEPPNKVAFPGAYSATDPGILINIYYPVPTSYQNPGPAVFSCMLANGAIVFLAAALGVSGHYTWPRVNDGADWQQVRKADNWQDNGYVGDVTSPQIRCFQATPSPAPSVLNTTAGSTVTYWANPDVYHPGPVQFYMARVPDGEDINSWNGDGAVWFKVYEDHPTFGAQLTWPSTGKSSFAVPIPPCIKSGYYLLRAEQIGLHVAQSVGGAQFYISCAQLSVTGGGSTEPPNKVAFPGAYSATDPGILINIYYPVPTSYQNPGPAVFSC
modifications: T. terrestris
In the case of B1, in assay [8], the “cleavage of cellulose, oxidized products” value is “cuts cellulose producing oxidized and native celluoligosaccharides”.

B2: TaGH61A: GH61 protein (SEQ ID NO: 2), GH61A from T. aurantiacus (protein)
chain: MSFSKIIATAGVLASASLVAGHGFVQNIVIDGKKYYGGYLVNQYPYMSNPPEVIAWSTTATDLGFVDGTGYQTPDIICHRGAKPGALTAPVSPGGTVELQWTPWPDSHHGPVINYLAPCNGDCSTVDKTQLEFFKIAESGLINDDNPPGIWASDNLIAANNSWTVTIPTTIAPGNYVLRHEIIALHSAQNQDGAQNYPQCINLQVTGGGSDNPAGTLGTALYHDTDPGILINIYQKLSSYIIPGPPLYTG
modifications: T. aurantiacus
With B2, in [8], the “cleavage of cellulose, oxidized products” value was “much less active than TtGH61E”.

B3: CBP21: chitin-binding protein of Serratia marcescens, single-domain CBM33 protein (SEQ ID NO: 4) (protein, listed as Serratia marescens)
chain: MNKTSRTLLSLGLLSAAMFGVSQQANAHGYVESPASRAYQCKLQLNTQCGSVQYEPQSVEGLKGFPQAGPADGHIASADKSTFFELDQQTPTRWNKLNLKTGPNSFTWKLTARHSTTSWRYFITKPNWDASQPLTRASFDLTPFCQFNDGGAIPAAQVTHQCNIPADRSGSHVILAVWDIADTANAFYQAIDVNLSK
In the case of B3, in [9], the “potentiating effect on chitinase (ChiC) efficiency” value is on record as “promotes chitin degradation by ChiC considerably better in the presence of ascorbic acid”. Besides, the “production of soluble oxidized oligosaccharides from beta-chitin” value in [10] is given as “soluble products are dominated by even numbered short oligosaccharides with acidic reducing ends”. Besides, the “effect on CELLUCLAST (CC) production of soluble glucose over time” value in assay [7] (10 mg/ml filter paper, 0.8 μg/ml CC, pH 5.5) is reported as “did not affect CC efficiency”. In [11] (setting [12]), the “rate calculated for oxidized dimer” value was 0.68 µM/min, the “rate calculated for oxidized trimer” value is 0.60 µM/min and the “rate of oxidized products generated (dimer + trimer)” value worked out at 1.28 µM/min. For the same molecule, in assay [11] (CBP21 + ChiC, five hours), the “end concentration of oxidized tetramer” value turned out to be 55 µM, the “end concentration of oxidized trimer” value amounted to 53 µM and the “total GlcNAcA” value was determined as 108 µM. Besides, in [11] (CBP21 alone), the “oxidized dimer produced at maximum levels” value was determined as 93 µM, the “oxidized trimer produced at maximum levels” value came out at 75 µM, the “time at which maximum levels of oxidized sugars are reached” value lay in the range of 2 to 3 h and the “total GlcNAcA at maximum levels” value worked out at 168 µM.
